These results are taken from patent publication US20260035468A1 (INSTITUT NATIONAL DE LA SANT ET DE LA RECHERCHE M DICALE, published 2026).

This experiment addresses T1, β8 chain of αvβ8 integrin (Itgβ8) expressed on human tumor Treg cells (human, UniProt P26012 43-769; P06756 31-1048).
T1 construct: whole, on cells; also called Itgb8 chain on human Treg cells; human Itgβ8
As to the kind of experiment: staining of cells of one fresh human colonic tumor (data not shown).

T1 sequence (P26012 43-769, chain 1 of 2): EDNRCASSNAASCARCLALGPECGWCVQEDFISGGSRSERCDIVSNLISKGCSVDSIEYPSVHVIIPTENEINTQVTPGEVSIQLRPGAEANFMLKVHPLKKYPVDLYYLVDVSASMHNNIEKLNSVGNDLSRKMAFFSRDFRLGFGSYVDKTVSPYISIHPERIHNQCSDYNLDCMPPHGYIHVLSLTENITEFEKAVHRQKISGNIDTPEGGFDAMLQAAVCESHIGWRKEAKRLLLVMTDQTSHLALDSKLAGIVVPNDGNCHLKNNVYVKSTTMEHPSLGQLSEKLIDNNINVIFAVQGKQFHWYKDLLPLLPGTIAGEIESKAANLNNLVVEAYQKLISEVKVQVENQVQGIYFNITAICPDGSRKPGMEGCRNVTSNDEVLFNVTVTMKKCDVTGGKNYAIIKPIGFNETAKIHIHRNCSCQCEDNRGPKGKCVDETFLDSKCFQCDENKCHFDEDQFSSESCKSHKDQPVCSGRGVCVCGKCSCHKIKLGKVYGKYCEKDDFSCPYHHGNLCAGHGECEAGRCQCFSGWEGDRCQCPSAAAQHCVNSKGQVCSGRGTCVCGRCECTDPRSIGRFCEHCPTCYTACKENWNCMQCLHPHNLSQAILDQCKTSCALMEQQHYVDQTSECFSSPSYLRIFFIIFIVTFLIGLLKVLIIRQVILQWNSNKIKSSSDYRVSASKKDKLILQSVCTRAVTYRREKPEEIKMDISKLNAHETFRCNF
T1 sequence (P06756 31-1048, chain 2 of 2): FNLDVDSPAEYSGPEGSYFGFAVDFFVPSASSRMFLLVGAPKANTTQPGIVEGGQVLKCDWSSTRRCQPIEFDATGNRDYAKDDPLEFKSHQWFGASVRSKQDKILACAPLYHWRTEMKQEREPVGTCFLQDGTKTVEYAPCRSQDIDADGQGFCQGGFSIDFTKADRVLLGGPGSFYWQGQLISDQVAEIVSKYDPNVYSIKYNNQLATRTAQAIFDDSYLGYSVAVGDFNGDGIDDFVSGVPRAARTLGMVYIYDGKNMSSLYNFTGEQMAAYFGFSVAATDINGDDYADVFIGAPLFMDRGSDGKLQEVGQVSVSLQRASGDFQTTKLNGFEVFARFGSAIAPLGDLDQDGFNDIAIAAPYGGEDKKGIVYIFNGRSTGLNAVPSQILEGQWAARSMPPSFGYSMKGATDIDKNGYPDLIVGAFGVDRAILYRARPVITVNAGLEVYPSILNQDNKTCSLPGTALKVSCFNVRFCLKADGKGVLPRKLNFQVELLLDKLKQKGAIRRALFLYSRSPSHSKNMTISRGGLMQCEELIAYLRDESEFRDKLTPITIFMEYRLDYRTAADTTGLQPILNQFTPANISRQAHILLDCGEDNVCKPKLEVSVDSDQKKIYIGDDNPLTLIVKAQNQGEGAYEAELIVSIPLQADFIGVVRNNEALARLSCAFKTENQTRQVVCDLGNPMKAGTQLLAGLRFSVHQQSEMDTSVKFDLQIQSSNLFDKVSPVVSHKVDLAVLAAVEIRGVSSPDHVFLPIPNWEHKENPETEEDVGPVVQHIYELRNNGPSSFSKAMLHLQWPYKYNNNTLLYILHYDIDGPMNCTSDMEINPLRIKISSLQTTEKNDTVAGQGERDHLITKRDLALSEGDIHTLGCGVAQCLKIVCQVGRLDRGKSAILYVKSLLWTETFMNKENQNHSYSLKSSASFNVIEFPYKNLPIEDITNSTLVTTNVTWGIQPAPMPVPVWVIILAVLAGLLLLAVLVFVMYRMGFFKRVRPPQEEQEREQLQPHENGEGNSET

B1: Mab 9B2 (antibody, V domains shown)
VH: QVQLQQSGAELAKPGASVKLSCKASGYTFTRYWMHWVKQRPGQGLEWIGHINPSSGYTKYNQKFKDKATLTADKSSSTAYMQLSSLTYEDSAVYYCAREVYYYGSSYGDFDYWGQGTTLTVSS
VL: QIVLTQSPAIMSASPGEKVTISCSASSSVSYMYWYQQKPGSSPKPWIYRTSNLASGVPARFSGSGSGTSYSLTISSMEAEDAATYYCQQYHSYPLTFGAGTKLELK
notes: Mouse hybridoma antibody tested as clone supernatant; also called 9B2 mAb; clone 1
With B1, the binding result is “binds”.

B2: Mab 1G10G4 (antibody, V domains shown)
VH: QVQLQQSGAELARPGASVKMSCKASGYTFTSYTMHWVKQRPGQGLEWIGYINPSSGYTKYNQKFKDKATLTADKSSSTAYMQLSSLTSEDSAVYYCARAEGLRAWFAYWGQGTLVTVSA
VL: DIVMTQSQKFMSTSVGDRVSVTCKASQNVGTNVAWYQQKPGQSPKALIYSASYRYSGVPDHFTGSGSGTDFTLTIINVQSEDLAEYFCQQYNSYPYTFGGGTKLEIK
notes: Mouse hybridoma antibody tested as clone supernatant; also called 1G10G4 mAb; clone 3
Take B2: the binding result was “binds”.
